B1: Nibrin (Homo sapiens), O60934 (parent)
chain: MWKLLPAAGPAGGEPYRLLTGVEYVVGRKNCAILIENDQSISRNHAVLTANFSVTNLSQTDEIPVLTLKDNSKYGTFVNEEKMQNGFSRTLKSGDGITFGVFGSKFRIEYEPLVACSSCLDVSGKTALNQAILQLGGFTVNNWTEECTHLVMVSVKVTIKTICALICGRPIVKPEYFTEFLKAVESKKQPPQIESFYPPLDEPSIGSKNVDLSGRQERKQIFKGKTFIFLNAKQHKKLSSAVVFGGGEARLITEENEEEHNFFLAPGTCVVDTGITNSQTLIPDCQKKWIQSIMDMLQRQGLRPIPEAEIGLAVIFMTTKNYCDPQGHPSTGLKTTTPGPSLSQGVSVDEKLMPSAPVNTTTYVADTESEQADTWDLSERPKEIKVSKMEQKFRMLSQDAPTVKESCKTSSNNNSMVSNTLAKMRIPNYQLSPTKLPSINKSKDRASQQQQTNSIRNYFQPSTKKRERDEENQEMSSCKSARIETSCSLLEQTQPATPSLWKNKEQHLSENEPVDTNSDNNLFTDTDLKSIVKNSASKSHAAEKLRSNKKREMDDVAIEDEVLEQLFKDTKPELEIDVKVQKQEEDVNVRKRPRMDIETNDTFSDEAVPESSKISQENEIGKKRELKEDSLWSAKEISNNDKLQDDSEMLPKKLLLTEFRSLVIKNSTSRNPSGINDDYGQLKNFKKFKKVTYPGAGKLPHIIGGSDLIAHHARKNTELEEWLRQEMEVQNQHAKEESLADDLFRYNPYLKRRR
B2: DNA endonuclease ctp1 (Schizosaccharomyces pombe (strain ATCC 38366 / 972)), O74986 (parent)
chain: MNEEEHNKSVHWSIVYRQLGNLLEQYEVEIARLKSQLVLEKKLRIQVEKELESVKTKQISSSASSKVSSNTIQELDSTTDEDEIPGSDTVDEEDPSLNAPFSEKNQSVKIPPHSPTLPVQNASAFVKPISVPLGNVKEEKFLDTNPIGAESFESSDGEMHLRARSPEDMILLRETQPLAPLDINTLGVSDNRQKKGTEKKRPFEPEFLNDDVIRGNKRKALPAYECPDCQKFYELHGPVKESSVAPTWNDENRLGGGSLPNCKHQPLVQKVGRHRKLNIPKPIPNGFWESDFVD
partner: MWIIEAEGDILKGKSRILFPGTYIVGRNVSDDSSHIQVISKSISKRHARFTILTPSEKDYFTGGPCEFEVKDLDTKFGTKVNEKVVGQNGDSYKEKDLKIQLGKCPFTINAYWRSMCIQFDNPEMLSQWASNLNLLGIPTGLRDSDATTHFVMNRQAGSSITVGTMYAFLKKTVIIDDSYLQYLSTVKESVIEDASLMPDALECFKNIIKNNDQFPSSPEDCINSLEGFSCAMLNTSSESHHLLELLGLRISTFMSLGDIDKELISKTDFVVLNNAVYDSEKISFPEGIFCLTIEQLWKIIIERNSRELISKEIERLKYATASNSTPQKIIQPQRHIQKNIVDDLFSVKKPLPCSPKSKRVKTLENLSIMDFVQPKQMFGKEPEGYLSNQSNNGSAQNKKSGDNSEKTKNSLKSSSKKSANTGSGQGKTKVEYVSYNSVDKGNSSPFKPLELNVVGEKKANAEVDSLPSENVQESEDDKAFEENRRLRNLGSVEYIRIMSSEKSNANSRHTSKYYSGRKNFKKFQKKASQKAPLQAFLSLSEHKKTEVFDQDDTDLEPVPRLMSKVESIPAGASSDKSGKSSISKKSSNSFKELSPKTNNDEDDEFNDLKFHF
B3: DNA repair and telomere maintenance protein nbs1 (Schizosaccharomyces pombe (strain ATCC 38366 / 972)), O43070 (parent)
chain: B2 partner

Variants of: B1
Settings: with mdc1_human MDC1, Q14676
Target sequence in this assay (Q14676 whole entry): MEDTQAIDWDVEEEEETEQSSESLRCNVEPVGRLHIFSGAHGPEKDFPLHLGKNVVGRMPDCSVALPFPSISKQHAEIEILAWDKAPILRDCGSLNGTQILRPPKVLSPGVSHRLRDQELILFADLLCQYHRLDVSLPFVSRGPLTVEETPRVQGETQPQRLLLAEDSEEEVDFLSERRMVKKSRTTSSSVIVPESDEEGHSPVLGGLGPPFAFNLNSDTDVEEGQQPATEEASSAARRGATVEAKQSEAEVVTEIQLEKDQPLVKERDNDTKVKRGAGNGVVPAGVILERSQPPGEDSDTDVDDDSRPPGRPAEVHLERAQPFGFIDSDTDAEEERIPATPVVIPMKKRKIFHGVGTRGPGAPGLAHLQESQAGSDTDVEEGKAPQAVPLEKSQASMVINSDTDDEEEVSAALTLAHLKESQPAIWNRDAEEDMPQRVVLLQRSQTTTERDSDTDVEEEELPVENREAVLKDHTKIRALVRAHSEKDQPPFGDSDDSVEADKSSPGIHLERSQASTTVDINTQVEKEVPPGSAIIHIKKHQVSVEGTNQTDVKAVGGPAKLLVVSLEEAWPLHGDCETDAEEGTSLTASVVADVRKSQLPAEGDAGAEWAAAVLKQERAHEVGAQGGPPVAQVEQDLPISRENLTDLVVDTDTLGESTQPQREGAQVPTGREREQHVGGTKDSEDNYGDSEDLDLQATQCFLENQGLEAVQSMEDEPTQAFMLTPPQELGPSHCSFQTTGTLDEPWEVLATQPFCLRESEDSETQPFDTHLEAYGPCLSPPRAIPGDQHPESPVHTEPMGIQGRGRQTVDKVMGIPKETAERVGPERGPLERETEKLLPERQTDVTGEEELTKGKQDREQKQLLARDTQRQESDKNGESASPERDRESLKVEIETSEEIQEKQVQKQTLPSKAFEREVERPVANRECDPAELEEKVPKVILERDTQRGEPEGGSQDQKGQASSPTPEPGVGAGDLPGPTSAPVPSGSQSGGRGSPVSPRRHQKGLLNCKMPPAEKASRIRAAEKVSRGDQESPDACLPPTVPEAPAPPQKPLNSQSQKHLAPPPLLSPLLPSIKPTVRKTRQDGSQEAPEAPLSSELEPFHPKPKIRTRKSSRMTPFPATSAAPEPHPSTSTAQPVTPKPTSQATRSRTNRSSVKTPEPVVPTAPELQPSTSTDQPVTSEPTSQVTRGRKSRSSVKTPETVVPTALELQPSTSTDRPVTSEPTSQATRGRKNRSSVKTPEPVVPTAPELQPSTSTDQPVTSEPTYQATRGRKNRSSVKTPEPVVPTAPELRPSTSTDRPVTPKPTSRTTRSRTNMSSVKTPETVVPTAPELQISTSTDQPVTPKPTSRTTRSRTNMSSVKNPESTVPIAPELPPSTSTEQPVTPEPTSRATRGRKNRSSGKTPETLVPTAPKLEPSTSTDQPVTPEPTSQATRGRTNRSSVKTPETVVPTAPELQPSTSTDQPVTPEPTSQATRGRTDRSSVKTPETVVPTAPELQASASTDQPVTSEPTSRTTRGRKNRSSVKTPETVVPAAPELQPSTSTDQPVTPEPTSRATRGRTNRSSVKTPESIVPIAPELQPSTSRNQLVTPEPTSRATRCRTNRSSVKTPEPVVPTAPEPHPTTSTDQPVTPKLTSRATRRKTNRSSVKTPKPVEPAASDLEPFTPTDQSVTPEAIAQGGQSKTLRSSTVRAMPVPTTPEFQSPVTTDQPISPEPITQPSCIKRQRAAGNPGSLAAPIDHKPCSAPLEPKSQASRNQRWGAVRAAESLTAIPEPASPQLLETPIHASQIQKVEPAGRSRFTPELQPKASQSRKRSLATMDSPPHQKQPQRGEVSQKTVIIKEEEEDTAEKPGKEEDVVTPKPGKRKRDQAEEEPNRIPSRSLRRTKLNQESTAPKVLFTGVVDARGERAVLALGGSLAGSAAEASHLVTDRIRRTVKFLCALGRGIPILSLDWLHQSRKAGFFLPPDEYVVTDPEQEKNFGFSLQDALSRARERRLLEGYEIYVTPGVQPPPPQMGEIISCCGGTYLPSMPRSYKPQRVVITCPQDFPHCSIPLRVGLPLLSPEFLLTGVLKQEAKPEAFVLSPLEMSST

| effect of a mutation on the interaction | Variant |
| --- | --- |
| disrupting interaction | S42A;K160M |
| decreasing interaction | R28A |
| decreasing interaction | K160M |
| decreasing interaction | S42A |

Variants of: B2
Settings: with nbs1_schpo nbs1, O43070

| effect of a mutation on the interaction | Variant |
| --- | --- |
| increasing interaction | MNEEEHNKSVHWSIVYRQLGNLLEQYEVEIARLKSQLVLEKKLRIQVEKELESVKTKQISSSASSKVSSNTIQELASTTDEDEIPGSDTVDEEDPSLNAPFSEKNQSVKIPPHSPTLPVQNASAFVKPISVPLGNVKEEKFLDTNPIGAESFESSDGEMHLRARSPEDMILLRETQPLAPLDINTLGVSDNRQKKGTEKKRPFEPEFLNDDVIRGNKRKALPAYECPDCQKFYELHGPVKESSVAPTWNDENRLGGGSLPNCKHQPLVQKVGRHRKLNIPKPIPNGFWESDFVD [D76A] |

Variants of: B3
Settings: with mdc1_human MDC1, Q14676
Target sequence in this assay (Q14676 whole entry): as the sequence (Q14676 whole entry) above

| effect of a mutation on the interaction | Variant |
| --- | --- |
| decreasing interaction | K76A |
| decreasing interaction | K45A |
| decreasing interaction | G103D |
